Experimental data published in US7803769B2 (priority 2006, dated 2010).
Bridge positions count the residues as written; N and C are the ends. Square brackets hold non-standard residues; d marks the D form. Ends that are not written are not given here. Peptide text beside a SMILES is read from it. 1Nal = N[C@@H](Cc1cccc2ccccc12)C(=O)O

Legend:
[1] = molecular target: human Kv1.3 channel (Homo sapiens, UniProt P22001); format: cell-based
[2] = system: thapsigargin-induced IL-2 production in human whole blood
[3] = molecular target: T1, human Kv1.3 (CHO) (Homo sapiens, UniProt P22001); assay: cell-based
T1 construct: expressed in transfected cells

[4] = molecular target: T2, human Kv1.1 (HEK293) (Homo sapiens, UniProt Q09470); assay: cell-based
T2 construct: expressed in transfected cells; host or cells: HEK293
T2 sequence (Q09470 whole entry): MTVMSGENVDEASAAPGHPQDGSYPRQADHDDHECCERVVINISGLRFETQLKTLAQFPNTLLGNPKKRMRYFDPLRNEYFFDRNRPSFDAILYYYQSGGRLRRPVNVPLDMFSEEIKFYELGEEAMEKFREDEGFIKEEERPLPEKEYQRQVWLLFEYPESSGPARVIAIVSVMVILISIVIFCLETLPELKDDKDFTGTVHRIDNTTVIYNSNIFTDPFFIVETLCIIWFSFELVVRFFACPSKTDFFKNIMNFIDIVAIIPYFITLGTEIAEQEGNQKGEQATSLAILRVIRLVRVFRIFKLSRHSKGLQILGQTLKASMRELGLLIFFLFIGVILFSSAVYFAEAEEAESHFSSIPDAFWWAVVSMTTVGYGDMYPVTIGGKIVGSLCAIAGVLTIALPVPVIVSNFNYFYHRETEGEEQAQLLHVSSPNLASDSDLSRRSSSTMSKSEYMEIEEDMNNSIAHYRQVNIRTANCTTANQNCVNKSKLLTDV

Chain of human Kv1.3 channel (P22001 whole entry): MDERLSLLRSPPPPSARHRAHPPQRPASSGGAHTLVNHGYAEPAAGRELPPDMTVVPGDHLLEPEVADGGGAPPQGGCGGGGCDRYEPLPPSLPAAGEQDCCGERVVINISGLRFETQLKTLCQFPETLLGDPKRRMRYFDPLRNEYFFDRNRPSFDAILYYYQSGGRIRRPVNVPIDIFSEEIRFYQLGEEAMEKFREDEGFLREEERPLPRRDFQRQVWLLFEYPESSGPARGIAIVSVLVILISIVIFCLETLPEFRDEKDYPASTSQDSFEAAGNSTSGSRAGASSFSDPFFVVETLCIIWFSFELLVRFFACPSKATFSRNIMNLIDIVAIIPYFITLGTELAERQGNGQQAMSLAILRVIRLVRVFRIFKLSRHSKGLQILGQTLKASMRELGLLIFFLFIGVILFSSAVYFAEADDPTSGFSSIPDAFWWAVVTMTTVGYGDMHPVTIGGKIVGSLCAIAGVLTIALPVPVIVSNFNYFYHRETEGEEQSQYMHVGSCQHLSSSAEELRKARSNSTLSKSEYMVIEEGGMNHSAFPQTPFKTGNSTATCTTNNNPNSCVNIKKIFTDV
T1 sequence (P22001 whole entry): as above

## Fc-L10-OSK1[K7S,E16K,K20D]: Fc-L10-OSK1 with K7S, E16K and K20D substitutions
[1]
  block of human Kv1.3 current (in words): significant decrease in potency as well as selectivity
  fold less potent than the synthetic OSK1 toxin peptide (Kv1.3): approximately 21 fold

## Fc-L10-OSK1[K7S]: Fc-L10-OSK1 with lysine to serine at position 7
[1]
  difference in Kv1.3 potency compared to Fc-L10-OSK1: 2 fold
  fold less potent than the synthetic OSK1 toxin peptide (Kv1.3): approximately 10 fold

## CC[C@H](C)[C@@H]1NC(=O)[C@H](CCCCN)NC(=O)[C@@H](NC(=O)[C@H](CCCCN)NC(=O)[C@@H](NC(=O)[C@H](CC(N)=O)NC(=O)[C@@H](NC(=O)[C@@H](NC(=O)[C@@H](NC(=O)CN)C(C)C)[C@@H](C)CC)[C@@H](C)CC)C(C)C)CSSC[C@@H]2NC(=O)[C@H](CCCCN)NC(=O)CNC(=O)[C@H](Cc3ccccc3)NC(=O)[C@H](CCCNC(=N)N)NC(=O)[C@H](CCSC)NC(=O)CNC(=O)[C@H](C)NC(=O)[C@H](CCCCN)NC(=O)[C@H](CCCCN)NC(=O)[C@@H]3CSSC[C@@H](C(=O)N[C@H](C(=O)N4CCC[C@H]4C(=O)N[C@@H](CCCCN)C(=O)O)[C@@H](C)O)NC(=O)[C@H](Cc4c[nH]cn4)NC(=O)[C@H](CSSC[C@H](NC(=O)[C@H](CCC(N)=O)NC(=O)[C@H](CCCNC(=N)N)NC(=O)[C@H](CO)NC1=O)C(=O)N[C@@H](CC(C)C)C(=O)N[C@@H](CCC(=O)O)C(=O)N1CCC[C@H]1C(=O)N3)NC(=O)[C@H](CCCCN)NC(=O)CNC(=O)[C@H](CC(N)=O)NC(=O)[C@H](C)NC2=O [OSK1[Ala-29]] (H-GVIINVKCKISRQCLEPCKKAGMRFGKCANGKCHCTPK-OH; disulfide 8-28, 14-33, 18-35)
[2]
  whole blood cytokine response (IL-2 and IFNg), blockade in words: several orders of magnitude more potent

## CC[C@H](C)[C@@H]1NC(=O)[C@H](CCCCN)NC(=O)[C@@H](NC(=O)[C@H](CCCCN)NC(=O)[C@@H](NC(=O)[C@H](CC(N)=O)NC(=O)[C@@H](NC(=O)[C@@H](NC(=O)[C@@H](NC(=O)CN)C(C)C)[C@@H](C)CC)[C@@H](C)CC)C(C)C)CSSC[C@@H]2NC(=O)[C@H](CCCCN)NC(=O)CNC(=O)[C@H](Cc3ccccc3)NC(=O)[C@H](CCCNC(=N)N)NC(=O)[C@H](CCSC)NC(=O)CNC(=O)[C@H](C)NC(=O)[C@H](Cc3cccc4ccccc34)NC(=O)[C@H](CCCCN)NC(=O)[C@@H]3CSSC[C@@H](C(=O)N[C@H](C(=O)N4CCC[C@H]4C(=O)N[C@@H](CCCCN)C(=O)O)[C@@H](C)O)NC(=O)[C@H](Cc4c[nH]cn4)NC(=O)[C@H](CSSC[C@H](NC(=O)[C@H](CCC(N)=O)NC(=O)[C@H](CCCNC(=N)N)NC(=O)[C@H](CO)NC1=O)C(=O)N[C@@H](CC(C)C)C(=O)N[C@@H](CCC(=O)O)C(=O)N1CCC[C@H]1C(=O)N3)NC(=O)[C@H](CCCCN)NC(=O)CNC(=O)[C@H](CC(N)=O)NC(=O)[C@H](CCSC)NC2=O [K20Nal] (H-GVIINVKCKISRQCLEPCK[1Nal]AGMRFGKCMNGKCHCTPK-OH; disulfide 8-28, 14-33, 18-35)
[3]
  IC50: 0.0135 nM
[4]
  IC50: < 0.00152 nM

## SEQ ID No: 4989: OSK1 analog without beta strand 1 (des 1-7), Table 42 (CKISRQCLKPCKDAGMRFGKCMNGKCHC-NH2; ends and bridges not checked)
[2]
  whole blood cytokine response (IL-2 and IFNg), blockade in words: still retain activity in blocking inflammation

B1: FcLoop-L2-OsK1-L2: OsK1 inserted into the human IgG1 Fc-loop with 2-Gly linkers on both sides (protein)
chain: MDKTHTCPPCPAPELLGGPSVFLFPPKPKDTLMISRTPEVTCVVVDVSHEDPEVKFNWYVDGVEVHNAKTKPREEQYNSTYRVVSVLTVLHQDWLNGKEYKCKVSNKALPAPIEKTISKAKGQPREPQVYTLPPSRDELGGGVIINVKCKISRQCLEPCKKAGMRFGKCMNGKCHCTPKGGTKNQVSLTCLVKGFYPSDIAVEWESNGQPENNYKTTPPVLDSDGSFFLYSKLTVDKSRWQQGNVFSCSVMHEALHNHYTQKSLSLSPGK
modifications: Definition of Artificial Sequence: Synthetic protein
[2]
  whole blood cytokine response (IL-2 and IFNg), blockade in words: potent blockade of the whole blood cytokine response in this assay, with IC50 values in the pM range
